Test results as given in IntAct's records for PubMed 11801737.

B1: Protein phosphatase 1 regulatory subunit SDS22 (Saccharomyces cerevisiae), P36047 (parent)
chain: MDKNSVNKDSEEKDERHKIEVVDDTNPDFITADSELTQDLPDDVEVIDLVHLKIKSLEDLNLYRFKNLKQLCLRQNLIESISEVEVLPHDKIVDLDFYDNKIKHISSNVNKLTKLTSLDLSFNKIKHIKNLENLTDLENLYFVQNSISKIENLSTLKSLKNLELGGNKVHSIEPDSFEGLSNLEEIWLGKNSIPRLINLHPLKNLKILSIQSNKLKKIENLEELTNLEELYLSHNFITKIEGLEKNLKLTTLDVTSNKITSLENLNHLSNLTDIWASFNKIDQSFESLGENLSALSRLETIYLEGNPIQLENKTSYRRKLTMNLPPSLQKIDATYIRG

Variants of: B1
Conditions: with pp12_yeast GLC7, P32598
Sequence of pp12_yeast GLC7, P32598 (P32598 whole entry): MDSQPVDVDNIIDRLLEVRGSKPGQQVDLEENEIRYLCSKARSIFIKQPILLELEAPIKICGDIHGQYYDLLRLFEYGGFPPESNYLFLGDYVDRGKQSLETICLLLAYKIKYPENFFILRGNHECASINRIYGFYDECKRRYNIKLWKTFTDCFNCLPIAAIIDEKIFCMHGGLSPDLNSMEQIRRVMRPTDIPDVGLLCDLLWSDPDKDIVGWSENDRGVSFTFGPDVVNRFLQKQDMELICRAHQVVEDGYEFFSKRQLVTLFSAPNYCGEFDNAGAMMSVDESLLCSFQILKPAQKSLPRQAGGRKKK
In the case of MDKNSVNKDSEEKDERHKIEVVDDTNPDFITADSELTQDLPDDVEVIDLVHLKTKSLEDLNLYRFKNLKQLCLRQNLIESISEVEVLPHDKIVDLDFYDNKIKHISSNVNKLTKLTSLDLSFNKIKHIKNLENLTDLENLYFVQNSISKIENLSTLKSLKNLELGGNKVHSIEPDSFEGLSNLEEIWLGKNSTPRLINLHPLKNLKILSIQSNKLKKIENLEELTNLEELYLSHNFITKIEGLEKNLKLTTLDVTSNKITSLENLNHLSNLTDIWASFNKIDQSFESLGENLSALSRLETIYLEGNPIQLENKTSYRRKLTMNLPPSLQKIDATYIRG [I54T;I193T], the “effect of a mutation on the interaction” value is reported as “decreasing interaction strength”.
